# Test results from patent US20120201828A1 (Sanofi, published 2012).
# Biological target: EphA2 receptor on tumor cells (human, UniProt P29317 24-976)
# Assay: cell-based or functional assay
# Sequence of EphA2 receptor on tumor cells (P29317 24-976): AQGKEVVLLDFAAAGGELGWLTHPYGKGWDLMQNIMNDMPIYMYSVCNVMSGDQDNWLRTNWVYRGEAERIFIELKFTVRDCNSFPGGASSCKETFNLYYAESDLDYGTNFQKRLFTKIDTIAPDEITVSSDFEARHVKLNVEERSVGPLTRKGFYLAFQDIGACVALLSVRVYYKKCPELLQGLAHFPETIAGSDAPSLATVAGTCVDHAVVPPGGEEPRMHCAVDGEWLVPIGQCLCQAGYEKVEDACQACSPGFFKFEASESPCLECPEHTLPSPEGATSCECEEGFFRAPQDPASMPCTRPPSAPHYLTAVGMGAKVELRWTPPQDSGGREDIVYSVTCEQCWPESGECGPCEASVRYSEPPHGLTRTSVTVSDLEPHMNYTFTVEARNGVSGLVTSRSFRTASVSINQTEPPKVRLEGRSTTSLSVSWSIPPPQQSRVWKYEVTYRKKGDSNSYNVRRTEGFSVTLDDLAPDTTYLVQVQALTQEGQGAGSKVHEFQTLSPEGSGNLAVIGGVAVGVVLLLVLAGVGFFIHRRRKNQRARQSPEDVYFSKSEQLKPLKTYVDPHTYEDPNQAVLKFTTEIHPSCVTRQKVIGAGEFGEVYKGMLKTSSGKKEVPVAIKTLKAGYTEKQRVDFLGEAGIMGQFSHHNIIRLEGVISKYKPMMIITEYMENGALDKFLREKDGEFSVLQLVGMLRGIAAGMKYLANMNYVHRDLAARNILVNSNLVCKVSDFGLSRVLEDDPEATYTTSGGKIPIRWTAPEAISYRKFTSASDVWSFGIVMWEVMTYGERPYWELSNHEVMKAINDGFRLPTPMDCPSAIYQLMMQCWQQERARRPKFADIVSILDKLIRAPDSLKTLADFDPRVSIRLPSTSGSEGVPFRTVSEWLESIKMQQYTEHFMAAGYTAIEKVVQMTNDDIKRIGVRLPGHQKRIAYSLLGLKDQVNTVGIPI
binder,measurement,value
"hu2H11R35R74-PEG4-Mal-DM4 (DAR 7.00) (antibody, V domains shown, DM4 through PEG4-Mal linker on lysine residues, sites not given; average DAR 7.00) VH: QVQLVQSGAEVVKPGASVKISCKASGYTFTAYYMHWVKQSPVQSLEWIGLVNPYNGFSSYNQKFQGKASLTVDRSSSTAYMELHSLTSEDSAVYYCAREFYGYRYFDVWGQGTAVTVSS VL: not shown","IC50 (M), cytotoxic activity on Lovo cells (WST8, 5 days)",1.16e-11 M
